One test concerns the target T1, Human IL-2Rβ (Homo sapiens, UniProt P14784).
T1 construct: corresponding to residues Ala1-Thr215 of the extracellular domains excluding the signal peptide
T1 sequence (P14784 26-240 limits assumed): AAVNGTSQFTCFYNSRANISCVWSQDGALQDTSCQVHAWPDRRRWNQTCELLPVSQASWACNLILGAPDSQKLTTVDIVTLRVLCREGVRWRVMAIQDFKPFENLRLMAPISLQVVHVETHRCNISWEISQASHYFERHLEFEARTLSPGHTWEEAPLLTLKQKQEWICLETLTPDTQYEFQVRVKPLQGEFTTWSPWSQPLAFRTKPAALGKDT
The test can be described thus: SPR binding affinity to recombinant human IL-2Rβ (Biacore). The following applies: 1:1 binding model. As to the method: (§1) Surface plasmon resonance (SPR) was used to determine the binding affinities. The M6-1625 and M10-1275 antibodies were captured onto a Cytiva Protein A Chip for 60 seconds at 0.5 μg/mL for 60 seconds. The antibodies were exposed to recombinant human LL-2Rβ or cynomolgus LL-2Rβ (corresponding to residues Ala1-Thr215 of the extracellular domains excluding the signal peptide) at typical concentrations ranging from 0.4 nM to 11 nM with typical 300 second associations and 1200 second dissociations using a BiacoreS200 instrument. Sensorgrams were fit globally using a 1:1 binding model in the Biacore T200 Evaluation Software to calculate on- and off-rates and KD values.
Background: In SPR one partner is held on a chip, and binding of the other changes the refractive index at the surface.

In the next test the target is T2, Cynomolgus IL-2Rβ (Macaca fascicularis, UniProt Q38J85).
T2 construct: corresponding to residues Ala1-Thr215 of the extracellular domains excluding the signal peptide
T2 sequence (Q38J85 26-240 limits assumed): T1 sequence (P14784 26-240 limits assumed) with Q8R, A67T, T75A, L84M, V93M, E128K, L159M
The test can be described thus: SPR binding affinity to recombinant cynomolgus IL-2Rβ (Biacore). The following applies: 1:1 binding model. The procedure:
as §1

Test [1] deals with xenogeneic NSG(huIL-15Tg)/Hu-PBMC Graft vs. Host Disease (GvHD) model. The test can be described thus: Xenogeneic NSG(huIL-15Tg)/Hu-PBMC GvHD model, Example 14. The class given is in vivo, mice. The following applies: 10 mg/kg, 3 mg/kg, or 1 mg/kg intraperitoneally twice weekly for 4 weeks; FIG. 14. The procedure:
A xenogeneic NSG(huIL-15Tg)/Hu-PBMC GvHD model testing the efficacy of the anti-CD122 antibody disclosed herein was performed at The Jackson laboratory JAX® In Vivo Pharmacology Services (Sacramento, CA). NOD-scidIL2rγ^null (NSG) human IL-15 transgenic mice were irradiated with 1 Gy followed by intravenous injection of human PBMCs in each mouse. APE15428 (IgG1-LALA) was dosed intraperitoneally at 10 mg/kg, 3 mg/kg, or 1 mg/kg twice weekly for 4 weeks starting the day following PBMC injection. Disease was monitored three times weekly by body weight loss, death, and GvHD scores measuring: weight loss, activity, fur texture, paleness, and posture.

Test [2] relates to PHA-stimulated primary human T cell blasts. The test can be described thus: IL-2- or IL-15-induced proliferation of PHA-stimulated T cell blasts (CTG). The following applies: IL-2 (15 pM) or IL-15 (150 pM) induced proliferation, IgG4 antibodies, compared with upadacitinib, FIG. 4. The format is cell-based. The procedure: Primary human PBMCs were isolated from whole blood donors, and stimulated in cuture for 3 days with 5 μg/mL PHA in a T75 flask. Cells were washed, counted, and plated at 100,000 cells/well in a 96-well plate. Antibodies were titrated at the concentrations indicated in FIG. 4, starting at 100 nM with 1:3 dilutions, and added to the cells. Recombinant IL-2 (15 pM) or IL-15 (150 pM) were added to the cells. Cells were cultured for an additional three days. SteadyGlo substrate was added for 10 minutes and the plates were read on the GloMax machine. Data were analyzed using Graphpad Prism software.

In a further test the target is T3, IL-2RB (Homo sapiens, UniProt P14784).
T3 sequence (P14784 27-551): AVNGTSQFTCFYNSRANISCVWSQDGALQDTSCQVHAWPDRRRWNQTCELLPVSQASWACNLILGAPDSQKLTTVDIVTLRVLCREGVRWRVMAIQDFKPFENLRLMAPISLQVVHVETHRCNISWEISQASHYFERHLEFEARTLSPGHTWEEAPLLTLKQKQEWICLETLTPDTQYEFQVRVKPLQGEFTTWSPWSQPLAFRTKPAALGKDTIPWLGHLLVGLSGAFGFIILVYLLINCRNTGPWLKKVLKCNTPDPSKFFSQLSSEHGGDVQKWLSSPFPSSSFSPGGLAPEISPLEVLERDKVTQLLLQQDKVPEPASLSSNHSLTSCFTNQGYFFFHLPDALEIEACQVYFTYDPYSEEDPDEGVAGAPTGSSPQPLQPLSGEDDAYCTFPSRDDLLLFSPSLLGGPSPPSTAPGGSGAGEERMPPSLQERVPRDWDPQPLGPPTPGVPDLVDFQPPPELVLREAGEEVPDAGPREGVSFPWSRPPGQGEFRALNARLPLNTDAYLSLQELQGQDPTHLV
The test can be described thus: Ability to block IL-2 (SPR assay). The class given is binding. The following applies: chimeric antibodies.

Changes are numbered by the printed parent chain.

By Kd is commonly meant the equilibrium constant for the complex coming apart.

B1: APE15170: M10-1275 series anti-CD122 antibody, VH SEQ ID NO: 23, VL SEQ ID NO: 35 (antibody, V domains shown)
VH: EVQLVQSGAEVKKPGATVKISCKVSGFNFKESLIHWVQQAPGKGLEWMGWIDNEAGETEYAPGFQDRVTITADTSTDTAYMELSSLRSEDTAVYYCARGGPWFLSYWGQGTTVTVSS
VL: EIVMTQSPATLSVSPGERATLSCRASQIISNNLHWYQQKPGQAPRLLIIYGLQSISGIPARFSGSRSGTEFTLTISSLQSEDFAVYFCQQSNNFPWTFGQGTKLEIKR
modifications: IgG4P format
Turning to B1, the Kd in the test with Human IL-2Rβ is 0.0128 nM; with Cynomolgus IL-2Rβ, 0.00487 nM.

B2: APE15446: M10-1275 series anti-CD122 antibody, VH SEQ ID NO: 24, VL SEQ ID NO: 35 (antibody, V domains shown)
VH: B1 VH
VL: B1 VL
As for B2, the Kd was determined as 0.0107 nM with Human IL-2Rβ and 0.00415 nM with Cynomolgus IL-2Rβ.

B3: APE15428: M6-p1625 series anti-CD122 antibody, VH SEQ ID NO: 69, VL SEQ ID NO: 77 (antibody, V domains shown)
VH: QVQLVQSGAEVKKPGASVKVSCKASGYTFTRFWIQWVRQAPGQGLEWMGEILPGSGSINHNEKFQGRVTMTRDTSTSTVYMELSSLRSEDTAVYYCTRHYGSFDYWGQGTTVTVSS
VL: DIQMTQSPSSLSASVGDRVTITCKASQNVGTDVAWYQQKPGKAPKSLIYSASYRYSGVPSRFSGSGSGTDFTLTISSLQPEDFATYFCHQYESYPFTFGQGTKLEIKR
modifications: IgG1 LALA Fc format
With B3, in test [1], the “median time to survival vs. isotype control” value is “statistically significant efficacy”. The Kd worked out at 0.0567 nM in the test with Human IL-2Rβ and 0.0765 nM with Cynomolgus IL-2Rβ.

B4: APE15295: M6-p1625 series anti-CD122 antibody, VH SEQ ID NO: 68, VL SEQ ID NO: 77 (antibody, V domains shown)
VH: B3 VH
VL: B3 VL
modifications: IgG4P format
As to B4, the figures for the Kd in the test with Human IL-2Rβ and in the test with Cynomolgus IL-2Rβ were 0.0557 nM and 0.0707 nM, respectively.

B5: M10-1275: anti-CD122 IgG4 antibody of the M10-1275 class tested in Example 4; APE number not stated (antibody, V domains shown)
VH: DVQLQQSGAELARPGASVKLSCTVSGFNFKDSLMHWVTQGPERGLRWIGWIDSENGETEYAPGFQDKATITADTSSSTVYLHLSSLTSEDTAIYYCARGGPWFLSYWGPGTTLTVSS
VL: DIVLTQTPATLSVTPGDSVSLSCRASQIISNNLHWYQQKSHESPRLLIIYGLQSISGIPYRFSGRRSGTDFTLNINSVEIEDFGMYFCQQSNNWPWTFGGGTKLDIRR
For the molecule B5, the “blocking IL-2 and IL-15” value in test [2] is reported as “better than upadacitinib”.

B6: APE12705: M10-1275 series anti-CD122 antibody (chimeric in Table 3), VH SEQ ID NO: 1, VL SEQ ID NO: 25 (antibody, V domains shown)
VH: B5 VH
VL: B5 VL
As to B6, the “Blocking (IL-2 down)” value with IL-2RB was “Partial”.

B7: M6-1625: anti-CD122 IgG4 antibody of the M6-p1625 class tested in Example 4; APE number not stated (antibody, V domains shown)
VH: QVQLQQSGAELMKPGASVKISCKSTGYTFSRYWIEWVKQRPGHGLEWIGEILPGSGSINHNEKFQGKATFTADTSSNTVYMQLSSLTSEDSAVYFCTRHYGSFDYWGQGTTLTVSS
VL: EIVMTQSPKFMSTSVGDRVSVTCKASQNVGTDVAWYQQKPGQSPKALIYSASYRYNGVPDRFTGSGSGTDFTLTISNVQSEDLAEYFCHQYSSYPFTFGSGTKLEIKR
B7: the “blocking IL-2 and IL-15” value in test [2] was “better than upadacitinib”.

B8: APE12383: M6-p1625 series anti-CD122 antibody (chimeric in Table 3), VH SEQ ID NO: 37, VL SEQ ID NO: 70 (antibody, V domains shown)
VH: B7 VH
VL: B7 VL
Consider B8, for which the “Blocking (IL-2 down)” value with IL-2RB is reported as “Blocker”.
